Test results reported in patent publication US9301997B2, “Method of vaccination for limiting articular inflammation in rheumatoid arthritis and multiple sclerosis by administering IL-23 peptides” (PEPTINOV SAS, priority 2009, dated 2016).

Assays:
[1] = tested on: collagen-induced arthritis; assay: Collagen-induced arthritis mouse model of rheumatoid arthritis, vaccination; format: in vivo; conditions: DBA/1 mice
Excerpt: The collagen-induced arthritis is a well-known model of rheumatoid arthritis, which reproduces the main features characterizing the human disease. The experimental disease is induced in the animal by two successive injections of type II bovine collagen in the tail. Clinical signs of disease occur a few days later, principally marked by a severe articular inflammation and the joint destruction. The articular inflammation can be quantified and reported as clinical scores by the person of the art: a score from 0 (no clinical sign) to 4 (total inflammation) is given for each articulation of each mouse. Groups of 10 mice are compared by the mean value of the scores obtained on […]. Similarly, the articular inflammation and destruction can be observed on histological sections of joints and be reported as histological scores by the person of the art.
DBA/1 mice (n=10 per treatment group) were vaccinated two weeks before the first injection of collagen either with the cyclised peptide derived from mIL23: C-DSD IFK GEP ALL PDS PME QL-C-Y (coupled with KLH via BDB and an additional tyrosine on the C-terminus), or with a control made of KLH alone, or with PBS alone. The injected dose in each mice corresponded to 100 μg of coupled peptide for the peptide group, and to 100 μg of KLH alone for the KLH control group, all in complete Freund's adjuvant. […]

[2] = tested on: experimental autoimmune encephalomyelitis; assay: Experimental autoimmune encephalomyelitis mouse model of multiple sclerosis, vaccination; format: in vivo; conditions: C57BL/6 mice, 100 μg/animal s.c. 4 times, 30 days follow-up, versus carrier and PBS groups, p=0.0003
Method: The experimental autoimmune encephalomyelitis in mice is a well-known model of multiple sclerosis. Three groups of 12 C57BL/6 mice were injected 4-times (s.c.) either with 1/100 μg/animal of the same peptide derivative of murine IL-23 as in example 9 coupled with KLH and emulsioned in CFA for the initial immunization and IFA (ISA51) for the subsequent boosts, or with 2/the carrier protein prepared in the same conditions, or with 3/PBS alone. The injections took pace at day 0, 15, 30 and 45.
To induce the experimental disease, mice were immunized (s.c.) at two sites with 200 μg of MOG peptide 35-55 in […] of Complete Freund's Adjuvant (CFA) at day 60. On the same day and after two days, mice were injected (i.p.) with, respectively 75 and 200 ng/mouse, of pertussis toxin (List Biological Laboratories). The mice were then assessed daily for clinical signs of EAE according to the following well-known scoring method (Sinha et al., J. Immunol., 2008): 0, normal; 0.5, limp tail; 1, tail paralysis; 2, mono or paraparesis of the hind limbs; 3, mono or paraplegia of the hind limbs; 4, paraplegia of the forelimb; 5, moribund condition or death. The follow-up was done on a period of 30 days as shown (cf. FIG. 7).

[3] = molecular target: T1, human IL-23 (Homo sapiens, UniProt Q9NPF7); assay: Neutralization assay for human IL-23 (IL-17 secretion by purified mouse splenocytes); format: cell-based; conditions: for Average % neutralization, SD: purified rabbit antibodies at a dilution of 1/20, 1 ng/mL bioactive hIL-23; for Neutralization of the biological activity of human IL-23: purified IgG of immunized rabbits, result in words
T1 sequence (Q9NPF7 20-189): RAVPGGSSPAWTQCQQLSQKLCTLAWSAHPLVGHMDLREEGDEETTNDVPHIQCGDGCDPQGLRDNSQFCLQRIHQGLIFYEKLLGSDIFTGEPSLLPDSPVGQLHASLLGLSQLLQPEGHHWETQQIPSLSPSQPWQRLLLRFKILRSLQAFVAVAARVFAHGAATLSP
T1 sequence (P29460 23-328 partner): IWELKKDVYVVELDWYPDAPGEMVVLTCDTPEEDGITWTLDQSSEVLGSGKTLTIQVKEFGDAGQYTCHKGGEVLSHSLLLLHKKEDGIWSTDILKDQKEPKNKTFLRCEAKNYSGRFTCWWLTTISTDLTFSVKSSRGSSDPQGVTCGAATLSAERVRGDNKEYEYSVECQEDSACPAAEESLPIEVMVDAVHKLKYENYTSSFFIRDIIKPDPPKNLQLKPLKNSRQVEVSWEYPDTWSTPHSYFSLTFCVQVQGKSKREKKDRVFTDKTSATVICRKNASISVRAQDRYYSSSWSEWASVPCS
Method: The neutralization capacity of the purified total IgG fraction derived from the 4 immunized rabbits of example 1 was then tested in a neutralization assay for human IL-23. The test is based on the fact that purified mouse splenocytes secrete IL-17 in a dose dependent fashion, in response to the stimulation with bioactive human IL-23 (cf. FIG. 2). On the x-axis one can see the various dilutions of the IgG tested and on the y-axis the production of IL-17 as an optical density value. One sees that the IgG fraction of rabbits immunized against the peptide neutralize the biological activity of human IL-23 in a dose-dependent fashion. Each bar represents the mean of the tests performed with the 4 purified antibodies; the standard deviation is also indicated. The experimental conditions comprise two negative controls (no human IL-23 and no inhibitor) and a positive control with an anti-hIL-23 neutralizing antibody sold from the company R&D Systems (# ref: AF1716).
(§1) Four New Zealand rabbits were immunized with the cyclised peptide Y-C-KGE PAL LPD SP-C derived from the murine IL-23, similarly as in the protocol described in Example 1. The peptide was coupled with KLH via BDB and a supplementary tyrosine. The sera of the animals were purified by affinity column against protein A and the purified antibodies were tested in ELISA and in neutralisation assays. For ELISA, plates were coated either with murine or with human IL-23 and individual sera were tested at different dilutions to determine the Titer50. The titer corresponds to the dilution corresponding yielding an OD value at 50% of the maximal OD score (obtained for the smallest dilution, 1/50e). In parallel, different dilutions of the purified rabbit antibodies were tested on IL-23 neutralisation assays, similarly as in Examples 2, 3, and 4. Table 1 presents the average neutralisation obtained for the 4 purified antibodies rabbit at a dilution of 1/20 and in the presence of 1 ng/mL of bioactive mIL-23 or hIL-23.

[4] = molecular target: T1, human IL-23; assay: ELISA of purified rabbit antibodies on plates coated with human IL-23; format: binding; conditions: for Average Titers50 (ELISA), SD: purified antibodies of rabbits immunized with the KLH-coupled peptide, plate coated with human IL-23, dilution yielding 50% of maximal OD; for Recognition of human IL-23 by antibodies raised against the peptide (ELISA): antibodies of immunized rabbits, result in words
Method: (§2) Specific-pathogen-free New Zealand rabbits (n=4) are immunized with 100 μg of a peptide derivative of human IL-23 by five immunizations in CFA/IFA at day 0, 14, 28, 56 and 70. The peptide, whose sequence is C-GSD IFT GEP SLL PDS PVG QL-C-Y, was coupled to KLH with BDB. The sera from immunized rabbits were taken at day 82 after initial immunization, and the antibodies were purified by affinity chromatography against protein A. The purified antibodies were tested by ELISA at various dilutions and on a plate coated either by human IL-23 or by murine IL-23 (cf. FIG. 1). The mean OD value of the […] purified sera is given at the various dilutions for the ELISA tests against murine IL-23 (dotted line) and against human IL-23 (regular line).
as §1

[5] = molecular target: T2, murine IL-23 (Mus musculus, UniProt Q9EQ14); assay: ELISA of purified rabbit antibodies on plates coated with murine IL-23; format: binding; conditions: antibodies of immunized rabbits, result in words
T2 sequence (Q9EQ14 22-196): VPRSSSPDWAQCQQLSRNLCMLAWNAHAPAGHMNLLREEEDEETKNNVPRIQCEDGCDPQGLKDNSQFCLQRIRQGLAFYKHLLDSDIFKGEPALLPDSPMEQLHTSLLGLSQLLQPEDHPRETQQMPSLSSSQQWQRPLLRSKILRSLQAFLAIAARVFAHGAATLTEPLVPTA
T2 sequence (P43432 23-335 partner): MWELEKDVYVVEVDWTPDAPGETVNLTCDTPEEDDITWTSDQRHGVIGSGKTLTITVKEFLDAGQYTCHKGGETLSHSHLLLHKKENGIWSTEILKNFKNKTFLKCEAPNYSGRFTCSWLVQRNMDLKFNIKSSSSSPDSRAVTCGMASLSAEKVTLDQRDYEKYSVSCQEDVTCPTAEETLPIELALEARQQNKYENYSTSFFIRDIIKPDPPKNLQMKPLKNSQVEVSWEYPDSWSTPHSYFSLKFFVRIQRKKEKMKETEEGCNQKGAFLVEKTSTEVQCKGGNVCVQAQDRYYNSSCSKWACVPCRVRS
Method: as §2
(§3) Four New Zealand rabbits were immunized with the cyclised peptide Y-C-KGE PAL LPD SP-C derived from the murine IL-23, similarly as in the protocol described in Example 1. The peptide was coupled with KLH via BDB and a supplementary tyrosine. The sera of the animals were purified by affinity column against protein A and the purified antibodies were tested in ELISA and in neutralisation assays. For ELISA, plates were coated either with murine or with human IL-23 and individual sera were tested at different dilutions to determine the Titer50. […]

[6] = molecular target: T2, murine IL-23; assay: Auto-antibody response against murine IL-23 in immunized mice (serum ELISA); format: in vivo; conditions: OF1 mice immunized intra-muscularly, 100 μg/injection, sera tested at 1/500
Method: A peptide of murine IL-23 is coupled to KLH in the presence of a coupling agent (BDB). The peptide has been cyclised thanks to the addition of 2 cysteine residues coupled to BDB through an additional tyrosine; its amino-acid sequence is: C-DSD IFK GEP ALL PDS PME QL-C-Y. The vaccinal composition is injected intra-muscularly […] in ten (10) OF1 mice, at a dose of 100 μg/injection once every 2 weeks at days 0, 15, 30, 45. The sera of the animals are taken after the boosts at days 20, 38, 60 and 80 and are tested by ELISA at a dilution of 1/500 and on a coating of murine IL-23. The ELISA results are given as optical density (OD450nm) values. FIG. 5 presents the mean OD450nm value obtained at each time-point for the 10 mice tested. The grey line represents the response of mice immunized with the peptide derivative of IL-23 (triangles). The dotted lines represents the response of control mice immunized with the vehicle (empty grey diamonds), and control mice immunized with the carrier protein only (empty grey squares).

[7] = molecular target: T2, murine IL-23; assay: Neutralization assay for murine IL-23 (IL-17 secretion by purified mouse splenocytes); format: cell-based; conditions: purified IgG of immunized rabbits, result in words
Excerpt: The same IgG fraction from 4 immunized rabbits used in example 2 is used for a test of neutralization of the murine IL-23 cytokine. The test for murine IL-23 is based on the fact that purified mouse splenocytes secrete IL-17 in a dose dependent fashion, in response to the stimulation with bioactive […] IL-23 (cf. FIG. 3). One sees that the IgG fraction of rabbits immunized against the human IL-23 peptide can neutralize the biological activity of murine IL-23 in a dose-dependent fashion. Each bar represents the mean of the tests performed with the 4 purified antibodies; the standard deviation is also indicated. There are two negative controls (no mouse IL-23 and no inhibitor) and a positive control with an anti-murine IL-23 neutralizing antibody sold from the company R&D Systems (# ref: AF1619).
as §3

Row | Substance | Average % neutralization, SD [3] | Average Titers50 (ELISA), SD [4] | Recognition of murine IL-23 by antibodies raised against the peptide (ELISA) [5] | Recognition of human IL-23 by antibodies raised against the peptide (ELISA) [4] | Neutralization of the biological activity of murine IL-23 [7] | Neutralization of the biological activity of human IL-23 [3] | other results
1 | C-DSD IFK GEP ALL PDS PME QL-C-Y | – | – | – | – | – | – | Clinical scores of articular inflammation ([1]; 100 μg coupled peptide in CFA plus boosts in IFA, followed until day 80, versus KLH alone or PBS): statistically significant protection at the late stage of disease; Histological scores of articular inflammation and destruction ([1]; histological sections of joints): limits the extent of both the articular inflammation and destruction at the histological level; Clinical signs of EAE (disease activity score) [2]: statistically significant lower disease activity than the two control groups
2 | CTGEPSC (sub-sequence of seq ID NO2 with C-terminal and N-terminal cystein) [C-TGE PS-C, peptide 1 derived from hIL-23] | 35 ± 7% | 1758 ± 153 | – | – | – | – | –
3 | DSD IFK GEP ALL PDS PME QL (DSDIFKGEPALLPDSPMEQL; Mus Musculus) [peptide derivative of mouse IL-23p19] | – | – | could recognize both the murine and human IL-23 cytokines | could recognize both the murine and human IL-23 cytokines | – | – | Generation of anti-mIL-23 antibodies in mice [6]: anti-mIL-23 Abs could be generated in mice
4 | C-DSD IFK GEP ALL PDS PME QL-C | – | – | – | – | can neutralize mIL-23 | cross-neutralize hIL-23 | –
5 | C-LPD SP-C-Y (CLPDSPCY; sub-sequence of seq ID NO2 with N-terminal cystein and C-terminal cystein and tyrosin) [CLPDSPC-Y, peptide 2 derived from hIL-23] | 39 ± 11% | 2287 ± 175 | – | – | – | – | –
6 | C-GSD IFT GEP SLL PDS PVG QL-C-Y (GSDIFTGEPSLLPDSPVGQL; not fully specified; terminal cysteines and C-terminal tyrosine; listed as Homo Sapiens) [peptide derivative of human IL-23 subunit p19, region Gly105 to Leu124, with two terminal cysteines and a C-terminal tyrosine] | – | – | could recognize the murine IL-23 cytokine | could generate antibodies recognizing the whole human IL-23 cytokine | neutralize its biological activity | could neutralize the biological activity of the human cytokine | –
